{"source": "patent US20090215081", "target": "T1, FLAG-TCF4, full length human TCF4 expressed from pFLAG-CMV-4, Q9NQB0", "T1 chain": "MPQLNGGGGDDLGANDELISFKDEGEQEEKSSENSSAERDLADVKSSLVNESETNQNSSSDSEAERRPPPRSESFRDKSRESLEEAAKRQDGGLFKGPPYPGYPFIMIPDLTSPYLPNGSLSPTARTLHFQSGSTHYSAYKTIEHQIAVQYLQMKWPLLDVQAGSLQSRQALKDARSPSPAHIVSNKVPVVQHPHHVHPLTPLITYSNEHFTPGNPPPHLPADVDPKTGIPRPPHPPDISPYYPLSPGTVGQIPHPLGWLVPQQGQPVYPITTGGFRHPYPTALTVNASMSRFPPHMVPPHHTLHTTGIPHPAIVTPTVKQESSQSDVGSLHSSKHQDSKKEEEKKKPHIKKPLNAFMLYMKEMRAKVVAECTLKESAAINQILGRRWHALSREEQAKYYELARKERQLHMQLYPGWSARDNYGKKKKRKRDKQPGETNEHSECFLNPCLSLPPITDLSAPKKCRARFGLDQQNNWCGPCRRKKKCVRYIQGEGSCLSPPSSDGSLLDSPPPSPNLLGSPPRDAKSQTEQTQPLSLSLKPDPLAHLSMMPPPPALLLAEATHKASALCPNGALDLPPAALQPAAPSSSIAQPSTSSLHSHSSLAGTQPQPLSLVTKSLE"}
{"protein": "HA-TNIK K54R, ATP binding site mutant of human TNIK expressed from pCIneo-HA-TNIK K54R (protein) MASDSPARSLDEIDLSALRDPAGIFELVELVGNGTYGQVYKGRHVKTGQLAAIRVMDVTGDEEEEIKQEINMLKKYSHHRNIATYYGAFIKKNPPGMDDQLWLVMEFCGAGSVTDLIKNTKGNTLKEEWIAYICREILRGLSHLHQHKVIHRDIKGQNVLLTENAEVKLVDFGVSAQLDRTVGRRNTFIGTPYWMAPEVIACDENPDATYDFKSDLWSLGITAIEMAEGAPPLCDMHPMRALFLIPRNPAPRLKSKKWSKKFQSFIESCLVKNHSQRPATEQLMKHPFIRDQPNERQVRIQLKDHIDRTKKKRGEKDETEYEYSGSEEEEEENDSGEPSSILNLPGESTLRRDFLRLQLANKERSEALRRQQLEQQQRENEEHKRQLLAERQKRIEEQKEQRRRLEEQQRREKELRKQQEREQRRHYEEQMRREEERRRAEHEQEYIRRQLEEEQRQLEILQQQLLHEQALLLEYKRKQLEEQRQAERLQRQLKQERDYLVSLQHQRQEQRPVEKKPLYHYKEGMSPSEKPAWAKEVEERSRLNRQSSPAMPHKVANRISDPNLPPRSESFSISGVQPARTPPMLRPVDPQIPHLVAVKSQGPALTASQSVHEQPTKGLSGFQEALNVTSHRVEMPRQNSDPTSENPPLPTRIEKFDRSSWLRQEEDIPPKVPQRTTSISPALARKNSPGNGSALGPRLGSQPIRASNPDLRRTEPILESPLQRTSSGSSSSSSTPSSQPSSQGGSQPGSQAGSSERTRVRANSKSEGSPVLPHEPAKVKPEESRDITRPSRPASYKKAIDEDLTALAKELRELRIEETNRPMKKVTDYSSSSEESESSEEEEEDGESETHDGTVAVSDIPRLIPTGAPGSNEQYNVGMVGTHGLETSHADSFSGSISREGTLMIRETSGEKKRSGHSDSNGFAGHINLPDLVQQSHSPAGTPTEGLGRVSTHSQEMDSGTEYGMGSSTKASFTPFVDPRVYQTSPTDEDEEDEESSAAALFTSELLRQEQAKLNEARKISVVNVNPTNIRPHSDTPEIRKYKKRFNSEILCAALWGVNLLVGTENGLMLLDRSGQGKVYNLINRRRFQQMDVLEGLNVLVTISGKKNKLRVYYLSWLRNRILHNDPEVEKKQGWITVGDLEGCIHYKVVKYERIKFLVIALKNAVEIYAWAPKPYHKFMAFKSFADLQHKPLLVDLTVEEGQRLKVIFGSHTGFHVIDVDSGNSYDIYIPSHIQGNITPHAIVILPKTDGMEMLVCYEDEGVYVNTYGRITKDVVLQWGEMPTSVAYIHSNQIMGWGEKAIEIRSVETGHLDGVFMHKRAQRLKFLCERNDKVFFASVRSGGSSQVFFMTLNRNSMMNW", "values": [{"measurement": "serine phosphorylation of TCF4 (immunoprecipitation with anti-TCF4, immunoblot with anti-phospho-serine antibody)", "value": "significant serine phosphorylation was not observed compared with control"}]}
